From doi:10.1101/2025.04.16.649061
pKd: −log10 of the molar value.

Key:
Assay in all cases: BLI
[1] = target: Hopsarin D (Hoplocephalus stephensii)
[2] = target: fXa L23 loop-swap chimera (human)
M17 fXa variant (human) = target: M17 fXa variant (human)
[3] = target: fXa variant M13 (7 EGF2 and 6 SP mutations) (human)
[4] = target: fXa L123/EGF2 chimera (M45) (human | Hoplocephalus stephensii)
[5] = target: fXa L2 loop-swap chimera (human)
[6] = target: fXa L123 loop-swap chimera (human)
[7] = target: fXa variant M7 (7 EGF2 mutations) (human)
[8] = target: fXa L23 chimera with the full EGF2 domain swap (human | Hoplocephalus stephensii)
[9] = target: fXa SP chimera (entire HopD SP domain swapped into human fXa) (human | Hoplocephalus stephensii)
[10] = target: fXa L1 loop-swap chimera (human)
[11] = target: wild-type human factor Xa (human)
[12] = target: fXa L3 loop-swap chimera (human)

Which results are given for “B-domainless human fV (from UniProt P12259 29-2224) (natural protein)”?
pKd [1]: 7.74; pKd [2]: 5.95; pKd (M17 fXa variant (human)): 7.77; pKd [3]: 7.32; pKd [4]: 7.37; pKd [5]: 5.95; pKd [6]: 6.22; pKd [7]: 7.11; pKd [8]: 6.43; pKd [9]: 6.40; pKd [10]: 6.27; pKd [11]: 5.86; pKd [12]: 6.04
